In US10472401B2, “Peptides and combination of peptides for use in immunotherapy against ovarian cancer and other cancers” (immatics biotechnologies GmbH, priority 2015, dated 2019):

Target: HLA-A*02:01 (Homo sapiens, UniProt P04439, D140Y/D185E/D98H/E176V/E277Q/G131W/G231S/I119V/I121R/I166T/I218V/L300P/L318F/N151K/N90K/P208A/P217A/Q86G/Q94H/R138H/R169H/T345S)
Experiment: MHC binding assay (UV-ligand exchange, ELISA of stabilized MHC complexes)
Settings: MHC class I binding score; binding to HLA-A*02:01 ranged by peptide exchange yield (UV-ligand exchange, ELISA)
In short: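 Binding scored as exchange yield, detected via β2m of stabilized complexes in an HRP/TMB ELISA read at 450 nm after streptavidin capture of 100-fold diluted monomers for 1 h at 37 °C. Complexes came from UV irradiation cleaving a photolabile peptide, exchanged for the candidate.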

| Peptide exchange | Substance |
| --- | --- |
| ″++″ (≥20% = ++) | 372 (TMLLNIPLV; listed as Homo sapiens) [compound 372] |
| ″++″ (≥20% = ++) | 373 (SLLEDKGLAEV; listed as Homo sapiens) [compound 373] |
| ″++″ (≥20% = ++) | 374 (FLLQQHLISA; listed as Homo sapiens) [compound 374] |
| ″++″ (≥20% = ++) | 375 (SLTETIEGV; listed as Homo sapiens) [compound 375] |
| ″++″ (≥20% = ++) | 376 (AMFESSQNVLL; listed as Homo sapiens) [compound 376] |
| ″++″ (≥20% = ++) | 377 (FLLDSSASV; listed as Homo sapiens) [compound 377] |
| ″+++″ (≥50% = +++) | 378 (ALGYFVPYV; listed as Homo sapiens) [compound 378] |
| ″++″ (≥20% = ++) | 379 (IMEGTLTRV; listed as Homo sapiens) [compound 379] |
| ″++″ (≥20% = ++) | 380 (TLIEDEIATI; listed as Homo sapiens) [compound 380] |
| ″++″ (≥20% = ++) | 381 (FIDEAYVEV; listed as Homo sapiens) [compound 381] |
| ″++″ (≥20% = ++) | 382 (ALQNYIKEA; listed as Homo sapiens) [compound 382] |
| ″+++″ (≥50% = +++) | 383 (ALLELENSVTL; listed as Homo sapiens) [compound 383] |
| ″++″ (≥20% = ++) | 385 (SLLEQGLVEA; listed as Homo sapiens) [compound 385] |
| ″+++″ (≥50% = +++) | 386 (ILFRYPLTI; listed as Homo sapiens) [compound 386] |
| ″++++″ (≥75% = ++++) | 387 (ALFQATAEV; listed as Homo sapiens) [compound 387] |
| ″+++″ (≥50% = +++) | 388 (SLTIDGIRYV; listed as Homo sapiens) [compound 388] |
| ″++″ (≥20% = ++) | 389 (LLADVTHLL; listed as Homo sapiens) [compound 389] |
| ″+++″ (≥50% = +++) | 390 (ALFMKQIYL; listed as Homo sapiens) [compound 390] |
| ″+++″ (≥50% = +++) | 391 (YVYPQRLNFV; listed as Homo sapiens) [compound 391] |
| ″++″ (≥20% = ++) | 392 (ALLHPQGFEV; listed as Homo sapiens) [compound 392] |
| ″++″ (≥20% = ++) | 393 (GLLDTQTSQVLTA; listed as Homo sapiens) [compound 393] |
| ″+++″ (≥50% = +++) | 394 (LLAVIGGLVYL; listed as Homo sapiens) [compound 394] |
| ″++++″ (≥75% = ++++) | 395 (ALALGGIAVV; listed as Homo sapiens) [compound 395] |
| ″+++″ (≥50% = +++) | 396 (ALLPDLPAL; listed as Homo sapiens) [compound 396] |
| ″+++″ (≥50% = +++) | 397 (YLFGERLLEC; listed as Homo sapiens) [compound 397] |
| ″++″ (≥20% = ++) | 398 (KLLEEDGTIITL; listed as Homo sapiens) [compound 398] |

| Peptide exchange | Substance |
| --- | --- |
| ″+++″ (≥50% = +++) | 399 (YLFEPLYHV; listed as Homo sapiens) [compound 399] |
| ″++″ (≥20% = ++) | 400 (SLLTEQDLWTV; listed as Homo sapiens) [compound 400] |
| ″+++″ (≥50% = +++) | 401 (ILLDDTGLAYI; listed as Homo sapiens) [compound 401] |
| ″++″ (≥20% = ++) | 402 (VLFSGALLGL; listed as Homo sapiens) [compound 402] |
| ″++″ (≥20% = ++) | 403 (KLYDRILRV; listed as Homo sapiens) [compound 403] |
| ″++″ (≥20% = ++) | 405 (ALYDVFLEV; listed as Homo sapiens) [compound 405] |
| ″+++″ (≥50% = +++) | 407 (YLMDLINFL; listed as Homo sapiens) [compound 407] |
| ″++″ (≥20% = ++) | 408 (VLDDSIYLV; listed as Homo sapiens) [compound 408] |
| ″++″ (≥20% = ++) | 409 (LLDAMNYHL; listed as Homo sapiens) [compound 409] |
| ″++″ (≥20% = ++) | 412 (YLDDLNEGVYI; listed as Homo sapiens) [compound 412] |
| ″+++″ (≥50% = +++) | 426 (RLADKSVLV; listed as Homo sapiens) [compound 426] |
| ″+++″ (≥50% = +++) | 427 (ALLPLSPYL; listed as Homo sapiens) [compound 427] |
| ″++″ (≥20% = ++) | 428 (KLGHTDILVGV; listed as Homo sapiens) [compound 428] |
| ″++″ (≥20% = ++) | 429 (GLVNDLARV; listed as Homo sapiens) [compound 429] |
| ″+++″ (≥50% = +++) | 430 (HLYSSIEHLTT; listed as Homo sapiens) [compound 430] |
| ″++″ (≥20% = ++) | 431 (SLVNVVPKL; listed as Homo sapiens) [compound 431] |
| ″++″ (≥20% = ++) | 432 (TLIEESAKV; listed as Homo sapiens) [compound 432] |
| ″+++″ (≥50% = +++) | 433 (AMLNEPWAV; listed as Homo sapiens) [compound 433] |
| ″++″ (≥20% = ++) | 434 (KVSNSGITRV; listed as Homo sapiens) [compound 434] |
| ″+++″ (≥50% = +++) | 436 (HLAEVSAEV; listed as Homo sapiens) [compound 436] |
| ″+++″ (≥50% = +++) | 437 (SMAPGLVIQAV; listed as Homo sapiens) [compound 437] |
| ″++++″ (≥75% = ++++) | 438 (KLLPLAGLYL; listed as Homo sapiens) [compound 438] |
| ″+++″ (≥50% = +++) | 439 (YLLQEIYGI; listed as Homo sapiens) [compound 439] |
| ″++″ (≥20% = ++) | 440 (ALADGVTMQV; listed as Homo sapiens) [compound 440] |
| ″+++″ (≥50% = +++) | 441 (ALLENPKMEL; listed as Homo sapiens) [compound 441] |
| ″+++″ (≥50% = +++) | 442 (GLLGGGGVLGV; listed as Homo sapiens) [compound 442] |

| Peptide exchange | Substance |
| --- | --- |
| ″+++″ (≥50% = +++) | 444 (GLLRDEALAEV; listed as Homo sapiens) [compound 444] |
| ″+++″ (≥50% = +++) | 446 (QLIPALAKV; listed as Homo sapiens) [compound 446] |
| ″++″ (≥20% = ++) | 447 (QLVPALAKV; listed as Homo sapiens) [compound 447] |
| ″+++″ (≥50% = +++) | 448 (NLLETKLQL; listed as Homo sapiens) [compound 448] |
| ″+++″ (≥50% = +++) | 449 (KLAEGLDIQL; listed as Homo sapiens) [compound 449] |
| ″+++″ (≥50% = +++) | 450 (FMIDASVHPTL; listed as Homo sapiens) [compound 450] |
| ″++″ (≥20% = ++) | 451 (LLLLDTVTMQV; listed as Homo sapiens) [compound 451] |
| ″+++″ (≥50% = +++) | 452 (ILLEHGADPNL; listed as Homo sapiens) [compound 452] |
| ″++″ (≥20% = ++) | 453 (KLLEATSAV; listed as Homo sapiens) [compound 453] |
| ″+++″ (≥50% = +++) | 454 (KLPPPPPQA; listed as Homo sapiens) [compound 454] |
| ″++″ (≥20% = ++) | 455 (SLLKEPQKVQL; listed as Homo sapiens) [compound 455] |
| ″+++″ (≥50% = +++) | 456 (LLIGHLERV; listed as Homo sapiens) [compound 456] |
| ″+++″ (≥50% = +++) | 457 (SLLPGNLVEKV; listed as Homo sapiens) [compound 457] |
| ″++″ (≥20% = ++) | 458 (SLIDKLYNI; listed as Homo sapiens) [compound 458] |
| ″++″ (≥20% = ++) | 459 (ALITEVVRL; listed as Homo sapiens) [compound 459] |
| ″++″ (≥20% = ++) | 461 (VMFRTPLASV; listed as Homo sapiens) [compound 461] |
| ″+++″ (≥50% = +++) | 462 (KLAKQPETV; listed as Homo sapiens) [compound 462] |
| ″+++″ (≥50% = +++) | 463 (SLVESHLSDQLTL; listed as Homo sapiens) [compound 463] |
| ″+++″ (≥50% = +++) | 464 (ALNDCIYSV; listed as Homo sapiens) [compound 464] |
| ″+++″ (≥50% = +++) | 465 (QLCDLNAEL; listed as Homo sapiens) [compound 465] |
| ″++++″ (≥75% = ++++) | 466 (VLIANLEKL; listed as Homo sapiens) [compound 466] |
| ″+++″ (≥50% = +++) | 467 (FLAKDFNFL; listed as Homo sapiens) [compound 467] |
| ″+++″ (≥50% = +++) | 468 (YLRSVGDGETV; listed as Homo sapiens) [compound 468] |
| ″+++″ (≥50% = +++) | 469 (YLASDEITTV; listed as Homo sapiens) [compound 469] |
| ″+++″ (≥50% = +++) | 471 (YLYNNMIAKI; listed as Homo sapiens) [compound 471] |
